Source: patent US20240108738A1 (Bicycle, published 2024)
Numbered stars: 1 amine (or outer) side, 2 acyl side, 3 side chain; on linkers, the order of the positions; unused ones are H or OH. Bridge positions count the residues as written; N and C are the ends. Square brackets hold non-standard residues; d marks the D form. Ends that are not written are not given here. * marks the point of attachment. TATA = O=C(CC[*:1])N1CN(C(=O)CC[*:2])CN(C(=O)CC[*:3])C1; Trp(5-F) = N[C@@H](Cc1c[nH]c2ccc(F)cc12)C(=O)O; Trp(6-F) = N[C@@H](Cc1c[nH]c2cc(F)ccc12)C(=O)O; Trp(6-Me) = Cc1ccc2c(C[C@H](N)C(=O)O)c[nH]c2c1; Trp(7-Me) = Cc1cccc2c(C[C@H](N)C(=O)O)c[nH]c12; Trp(2-Me) = Cc1[nH]c2ccccc2c1C[C@H](N)C(=O)O; Ala(2-furyl) = N[C@@H](Cc1ccco1)C(=O)O; Nva(3-Et) = CCC(CC)[C@H](N)C(=O)O; aIle = CC[C@@H](C)[C@H](N)C(=O)O; Cba = N[C@@H](CC1CCC1)C(=O)O; Pip = O=C(O)[C@@H]1CCCCN1; Nle = CCCC[C@H](N)C(=O)O; Pent4ynoyl = C#CCCC(=O)*; Nva = CCC[C@H](N)C(=O)O; Dap = NC[C@H](N)C(=O)O; Aib = CC(C)(N)C(=O)O; GABA = NCCCC(=O)O

target: T1, Human NKp46 Fc tag (Acro Biosystems, NC1-H5257) (human, UniProt O76036 22-255); experiment: SPR Method 1 and/or 2
T1 construct: bought; also called Fc-tagged human NKp46
T1 sequence (O76036 22-255 limits assumed): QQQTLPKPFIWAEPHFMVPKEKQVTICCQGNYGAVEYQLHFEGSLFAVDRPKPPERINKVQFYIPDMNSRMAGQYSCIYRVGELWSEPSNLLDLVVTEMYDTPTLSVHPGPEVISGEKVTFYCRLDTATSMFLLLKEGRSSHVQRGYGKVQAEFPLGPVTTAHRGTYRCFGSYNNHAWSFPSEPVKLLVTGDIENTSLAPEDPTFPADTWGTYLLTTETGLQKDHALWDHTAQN
Method in brief: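 Fc-tagged human NKp46 captured on anti-human IgG surface (500–1000 RU); compounds run in PBS-P+ with 2% DMSO at 25 °C, 50 μL/min, 60 s association, 400 s dissociation. Double-referenced, DMSO-corrected; KD from steady-state 1:1 fit, kinetic constants from kinetic 1:1 fit where appropriate.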

| Binder | Kd [nM] |
| --- | --- |
| ACNLQKPCMKYPCA-NH2 (linker 2-8-13 via TATA; also: scaffold TATA, TATB or TBMT, scaffold TATA) [BCY14456] | 703 |
| ACDLTTHNCQWGIC[Aib]-NH2 (linker 2-9-14 via TATA, scaffold TATA) [BCY19717] | 598 |
| ACNLQAPCMLTGK[aIle]CA-NH2 (linker 2-8-15 via TATA; N-terminus assumed; SMILES CC[C@@H](C)[C@@H]1NC(=O)[C@H](CCCCN)NC(=O)CNC(=O)[C@H]([C@@H](C)O)NC(=O)[C@H](CC(C)C)NC(=O)[C@H](CCSC)NC(=O)[C@@H]2CSCCC(=O)N3CN(CN(C3)C(=O)CCSC[C@@H](C(=O)N[C@@H](C)C(N)=O)NC1=O)C(=O)CCSC[C@H](NC(=O)[C@H](C)N)C(=O)N[C@@H](CC(N)=O)C(=O)N[C@@H](CC(C)C)C(=O)N[C@@H](CCC(N)=O)C(=O)N[C@@H](C)C(=O)N1CCC[C@H]1C(=O)N2, scaffold TATA) [BCY19706] | 1200 |
| ACDLTTHNCQ[Trp(6-Me)]GICA-NH2 (linker 2-9-14 via TATA; N-terminus assumed; SMILES CC[C@H](C)[C@@H]1NC(=O)CNC(=O)[C@H](Cc2c[nH]c3cc(C)ccc23)NC(=O)[C@H](CCC(N)=O)NC(=O)[C@@H]2CSCCC(=O)N3CN(CN(C3)C(=O)CCSC[C@@H](C(=O)N[C@@H](C)C(N)=O)NC1=O)C(=O)CCSC[C@H](NC(=O)[C@H](C)N)C(=O)N[C@@H](CC(=O)O)C(=O)N[C@@H](CC(C)C)C(=O)N[C@@H]([C@@H](C)O)C(=O)N[C@@H]([C@@H](C)O)C(=O)N[C@@H](Cc1c[nH]cn1)C(=O)N[C@@H](CC(N)=O)C(=O)N2, scaffold TATA) [BCY19722] | 1460 |
| ACNLQA[Pip]CMLTGKVCA-NH2 (linker 2-8-15 via TATA; N-terminus assumed; SMILES CSCC[C@@H]1NC(=O)[C@@H]2CSCCC(=O)N3CN(CN(C3)C(=O)CCSC[C@@H](C(=O)N[C@@H](C)C(N)=O)NC(=O)[C@H](C(C)C)NC(=O)[C@H](CCCCN)NC(=O)CNC(=O)[C@H]([C@@H](C)O)NC(=O)[C@H](CC(C)C)NC1=O)C(=O)CCSC[C@H](NC(=O)[C@H](C)N)C(=O)N[C@@H](CC(N)=O)C(=O)N[C@@H](CC(C)C)C(=O)N[C@@H](CCC(N)=O)C(=O)N[C@@H](C)C(=O)N1CCCC[C@H]1C(=O)N2, scaffold TATA) [BCY19701] | 4030 |
| ACDLTTHNCQ[Trp(7-Me)]GICA-NH2 (linker 2-9-14 via TATA; N-terminus assumed; SMILES CC[C@H](C)[C@@H]1NC(=O)CNC(=O)[C@H](Cc2c[nH]c3c(C)cccc23)NC(=O)[C@H](CCC(N)=O)NC(=O)[C@@H]2CSCCC(=O)N3CN(CN(C3)C(=O)CCSC[C@@H](C(=O)N[C@@H](C)C(N)=O)NC1=O)C(=O)CCSC[C@H](NC(=O)[C@H](C)N)C(=O)N[C@@H](CC(=O)O)C(=O)N[C@@H](CC(C)C)C(=O)N[C@@H]([C@@H](C)O)C(=O)N[C@@H]([C@@H](C)O)C(=O)N[C@@H](Cc1c[nH]cn1)C(=O)N[C@@H](CC(N)=O)C(=O)N2, scaffold TATA) [BCY19723] | 2270 |
| ACNLQAPCM[Nva]TGKVCA-NH2 (linker 2-8-15 via TATA; N-terminus assumed; SMILES CCC[C@@H]1NC(=O)[C@H](CCSC)NC(=O)[C@@H]2CSCCC(=O)N3CN(CN(C3)C(=O)CCSC[C@@H](C(=O)N[C@@H](C)C(N)=O)NC(=O)[C@H](C(C)C)NC(=O)[C@H](CCCCN)NC(=O)CNC(=O)[C@H]([C@@H](C)O)NC1=O)C(=O)CCSC[C@H](NC(=O)[C@H](C)N)C(=O)N[C@@H](CC(N)=O)C(=O)N[C@@H](CC(C)C)C(=O)N[C@@H](CCC(N)=O)C(=O)N[C@@H](C)C(=O)N1CCC[C@H]1C(=O)N2, scaffold TATA) [BCY19704] | 1620 |
| ACDLTTHNCQWG[Nva(3-Et)]CA-NH2 (linker 2-9-14 via TATA; N-terminus assumed; SMILES CCC(CC)[C@@H]1NC(=O)CNC(=O)[C@H](Cc2c[nH]c3ccccc23)NC(=O)[C@H](CCC(N)=O)NC(=O)[C@@H]2CSCCC(=O)N3CN(CN(C3)C(=O)CCSC[C@@H](C(=O)N[C@@H](C)C(N)=O)NC1=O)C(=O)CCSC[C@H](NC(=O)[C@H](C)N)C(=O)N[C@@H](CC(=O)O)C(=O)N[C@@H](CC(C)C)C(=O)N[C@@H]([C@@H](C)O)C(=O)N[C@@H]([C@@H](C)O)C(=O)N[C@@H](Cc1c[nH]cn1)C(=O)N[C@@H](CC(N)=O)C(=O)N2, scaffold TATA) [BCY19733] | 354 |
| ACDLTTHNCQ[Trp(2-Me)]GICA-NH2 (linker 2-9-14 via TATA, scaffold TATA) [BCY19721] | 374 |
| ACDLTTHNCQWG[Nle]CA-NH2 (linker 2-9-14 via TATA; N-terminus assumed; SMILES CCCC[C@@H]1NC(=O)CNC(=O)[C@H](Cc2c[nH]c3ccccc23)NC(=O)[C@H](CCC(N)=O)NC(=O)[C@@H]2CSCCC(=O)N3CN(CN(C3)C(=O)CCSC[C@@H](C(=O)N[C@@H](C)C(N)=O)NC1=O)C(=O)CCSC[C@H](NC(=O)[C@H](C)N)C(=O)N[C@@H](CC(=O)O)C(=O)N[C@@H](CC(C)C)C(=O)N[C@@H]([C@@H](C)O)C(=O)N[C@@H]([C@@H](C)O)C(=O)N[C@@H](Cc1c[nH]cn1)C(=O)N[C@@H](CC(N)=O)C(=O)N2, scaffold TATA) [BCY19734] | 611 |
| [Dap]CNLQAPCMLTGKVCA-NH2 (linker 2-8-15 via TATA; N-terminus assumed; SMILES CSCC[C@@H]1NC(=O)[C@@H]2CSCCC(=O)N3CN(CN(C3)C(=O)CCSC[C@H](NC(=O)[C@@H](N)CN)C(=O)N[C@@H](CC(N)=O)C(=O)N[C@@H](CC(C)C)C(=O)N[C@@H](CCC(N)=O)C(=O)N[C@@H](C)C(=O)N3CCC[C@H]3C(=O)N2)C(=O)CCSC[C@@H](C(=O)N[C@@H](C)C(N)=O)NC(=O)[C@H](C(C)C)NC(=O)[C@H](CCCCN)NC(=O)CNC(=O)[C@H]([C@@H](C)O)NC(=O)[C@H](CC(C)C)NC1=O, scaffold TATA) [BCY19697] | 3730 |

More lines, in order of falling Kd, values ahead:

| Kd [nM] | Binder |
| --- | --- |
| 2610 | [GABA]CNLQAPCMLTGKVCA-NH2 (linker 2-8-15 via TATA, scaffold TATA) [BCY19699] |
| 2360 | ACNLQA[Nva]CMLTGKVCA-NH2 (linker 2-8-15 via TATA; N-terminus assumed; SMILES CCC[C@@H]1NC(=O)[C@H](C)NC(=O)[C@H](CCC(N)=O)NC(=O)[C@H](CC(C)C)NC(=O)[C@H](CC(N)=O)NC(=O)[C@@H](NC(=O)[C@H](C)N)CSCCC(=O)N2CN3CN(C2)C(=O)CCSC[C@@H](C(=O)N[C@@H](C)C(N)=O)NC(=O)[C@H](C(C)C)NC(=O)[C@H](CCCCN)NC(=O)CNC(=O)[C@H]([C@@H](C)O)NC(=O)[C@H](CC(C)C)NC(=O)[C@H](CCSC)NC(=O)[C@H](CSCCC3=O)NC1=O, scaffold TATA) [BCY19710] |
| 1690 | ACNLQAPCM[Nle]TGKVCA-NH2 (linker 2-8-15 via TATA, scaffold TATA) [BCY19703] |
| 1390 | ACDLTTHNCQ[Trp(6-F)]GICA-NH2 (linker 2-9-14 via TATA, scaffold TATA) [BCY19724] |
| 1050 | ACNLQAPCMLTGK[Nva(3-Et)]CA-NH2 (linker 2-8-15 via TATA; N-terminus assumed; SMILES CCC(CC)[C@@H]1NC(=O)[C@H](CCCCN)NC(=O)CNC(=O)[C@H]([C@@H](C)O)NC(=O)[C@H](CC(C)C)NC(=O)[C@H](CCSC)NC(=O)[C@@H]2CSCCC(=O)N3CN(CN(C3)C(=O)CCSC[C@@H](C(=O)N[C@@H](C)C(N)=O)NC1=O)C(=O)CCSC[C@H](NC(=O)[C@H](C)N)C(=O)N[C@@H](CC(N)=O)C(=O)N[C@@H](CC(C)C)C(=O)N[C@@H](CCC(N)=O)C(=O)N[C@@H](C)C(=O)N1CCC[C@H]1C(=O)N2, scaffold TATA) [BCY19707] |
| 964 | ACDLTT[Ala(2-furyl)]NCQWGICA-NH2 (linker 2-9-14 via TATA; N-terminus assumed; SMILES CC[C@H](C)[C@@H]1NC(=O)CNC(=O)[C@H](Cc2c[nH]c3ccccc23)NC(=O)[C@H](CCC(N)=O)NC(=O)[C@@H]2CSCCC(=O)N3CN(CN(C3)C(=O)CCSC[C@@H](C(=O)N[C@@H](C)C(N)=O)NC1=O)C(=O)CCSC[C@H](NC(=O)[C@H](C)N)C(=O)N[C@@H](CC(=O)O)C(=O)N[C@@H](CC(C)C)C(=O)N[C@@H]([C@@H](C)O)C(=O)N[C@@H]([C@@H](C)O)C(=O)N[C@@H](Cc1ccco1)C(=O)N[C@@H](CC(N)=O)C(=O)N2, scaffold TATA) [BCY19732] |
| 460 | ACDLTTHNCQWG[aIle]CA-NH2 (linker 2-9-14 via TATA, scaffold TATA) [BCY19735] |
| 457 | ACDLTTHNCQ[Trp(5-F)]GICA-NH2 (linker 2-9-14 via TATA, scaffold TATA) [BCY19725] |
| 3.5 | Ac-CY[Cba]PDYLC[dA]DEYCK(Pent4ynoyl)-NH2 (linker 1-8-13 via TATA; SMILES C#CCCC(=O)NCCCC[C@H](NC(=O)[C@@H]1CSCCC(=O)N2CN3CN(C2)C(=O)CCSC[C@H](NC(=O)[C@H](CC(C)C)NC(=O)[C@H](Cc2ccc(O)cc2)NC(=O)[C@H](CC(=O)O)NC(=O)[C@@H]2CCCN2C(=O)[C@H](CC2CCC2)NC(=O)[C@H](Cc2ccc(O)cc2)NC(=O)[C@@H](NC(C)=O)CSCCC3=O)C(=O)N[C@H](C)C(=O)N[C@@H](CC(=O)O)C(=O)N[C@@H](CCC(=O)O)C(=O)N[C@@H](Cc2ccc(O)cc2)C(=O)N1)C(N)=O, scaffold TATA) [BCY17224] |
